Assay [1] concerns the target fluorescein-maleimide labeled ABD2 of PLS2 (human). The experiment in a line: fluorescence polarisation; equilibrium fluorescence anisotropy in a plate reader, 10 nM FM-ABD2 with increasing RD-ABD1, 60 min at 22 °C, PLS buffer pH 8.0, quadratic isotherm fit.
The target is the same in assay [2]. Put plainly: fluorescence polarisation; stopped-flow fluorescence anisotropy kinetics, 25 °C, buffer pH 8.0; association: FM-ABD2 (50 or 100 nM) with at least 10-fold excess of the unlabeled RD-ABD1 construct (pseudo-first-order); dissociation: 25 or 50 nM FM-ABD2 bound to 50 or 100 nM RD-ABD1 construct, competed with 7.5 to 20 μM unlabeled ABD2; Kd calculated from koff and kon.

For assay [3] the target is unchanged. Put plainly: fluorescence polarisation; stopped-flow fluorescence anisotropy kinetics, 25 °C, buffer pH 7.4; association: FM-ABD2 (50 or 100 nM) with at least 10-fold excess of unlabeled RD-ABD1 (pseudo-first-order); dissociation: 25 or 50 nM FM-ABD2 bound to 50 or 100 nM RD-ABD1, competed with 7.5 to 20 μM unlabeled ABD2; Kd calculated from koff and kon.
Assay [4] shares this target. Put plainly: fluorescence polarisation; stopped-flow fluorescence anisotropy kinetics, 25 °C, buffer pH 7.0; association: FM-ABD2 (50 or 100 nM) with at least 10-fold excess of the unlabeled RD-ABD1 construct (pseudo-first-order); dissociation: 25 or 50 nM FM-ABD2 bound to 50 or 100 nM RD-ABD1 construct, competed with 7.5 to 20 μM unlabeled ABD2; Kd calculated from koff and kon.

The target is the same in assay [5]. Put plainly: fluorescence polarisation; equilibrium fluorescence anisotropy in a plate reader, 10 nM FM-ABD2 with increasing RD-ABD1, 60 min at 22 °C, PLS buffer pH 7.0, quadratic isotherm fit.
Assay [6] has the same target. Put plainly: fluorescence polarisation; stopped-flow fluorescence anisotropy kinetics, 25 °C, buffer pH 7.8; association: FM-ABD2 (50 or 100 nM) with at least 10-fold excess of unlabeled RD-ABD1 (pseudo-first-order); dissociation: 25 or 50 nM FM-ABD2 bound to 50 or 100 nM RD-ABD1, competed with 7.5 to 20 μM unlabeled ABD2; Kd calculated from koff and kon.
Assay [7] has the same target. The experiment in a line: fluorescence polarisation; stopped-flow fluorescence anisotropy kinetics, 25 °C, buffer pH 6.6; association: FM-ABD2 (50 or 100 nM) with at least 10-fold excess of unlabeled RD-ABD1 (pseudo-first-order); dissociation: 25 or 50 nM FM-ABD2 bound to 50 or 100 nM RD-ABD1, competed with 7.5 to 20 μM unlabeled ABD2; Kd calculated from koff and kon.

Assay [8] concerns the target Skeletal actin, filamentous (F-actin) (rabbit) (UniProt P68135).
The target is the same in assay [9]. The experiment in a line: fluorescence polarisation; equilibrium fluorescence anisotropy, pH 7.0, PLS buffer, 22 °C, 60 min; 5 nM FM-ABD2 with F-actin stabilized with 1.0 μM phalloidin; quadratic isotherm.
Assay [10] shares this target. Put plainly: fluorescence polarisation; stopped-flow fluorescence anisotropy kinetics, pH 6.6, 25 °C; association: FM-ABD2 (50 or 100 nM) with at least 10-fold F-actin; dissociation: from phalloidin-stabilized F-actin with excess unlabeled ABD2; Kd from koff and kon.
Assay [11] concerns the target PLS2 RD-ABD1 (a.a. 1-385) (human) (UniProt P13796). Put plainly: fluorescence polarisation; stopped-flow fluorescence anisotropy, 25 °C, PLS buffer pH 6.6; association of FM-ABD2 (50 or 100 nM) with excess RD-ABD1 (kon from the slope of kobs, line forced through koff); dissociation by competition with 7.5 to 20 uM unlabeled ABD2 (koff).
For assay [12], the target named is Skeletal actin, filamentous (F-actin) (rabbit) (UniProt P68135). The experiment in a line: fluorescence polarisation; stopped-flow fluorescence anisotropy kinetics, pH 6.8, 25 °C; association: FM-ABD2 (50 or 100 nM) with at least 10-fold F-actin; dissociation: from phalloidin-stabilized F-actin with excess unlabeled ABD2; Kd from koff and kon.
The target is the same in assay [13]. The experiment in a line: fluorescence polarisation; stopped-flow fluorescence anisotropy kinetics, pH 7.8, 25 °C; association of FM-ABD2 (50 or 100 nM) with at least 10-fold F-actin; koff could not be measured.
For assay [14] the target is unchanged. The experiment in a line: fluorescence polarisation; equilibrium fluorescence anisotropy, pH 8.0, PLS buffer, 22 °C, 60 min; 5 nM FM-ABD2 with F-actin stabilized with 1.0 μM phalloidin; quadratic isotherm.
Assay [15] has as its target PLS2 RD-ABD1 (a.a. 1-385) (human) (UniProt P13796). Put plainly: fluorescence polarisation; stopped-flow fluorescence anisotropy, 25 °C, PLS buffer pH 8.0; association of FM-ABD2 (50 or 100 nM) with excess RD-ABD1 (kon from the slope of kobs, line forced through koff); dissociation by competition with 7.5 to 20 uM unlabeled ABD2 (koff).
Assay [16] concerns the target PLS2 RD-ABD1-H207Y (human) (UniProt P13796). Put plainly: fluorescence polarisation; stopped-flow fluorescence anisotropy kinetics of FM-ABD2 with RD-ABD1-H207K and RD-ABD1-H207Y, 25 °C, pH 7.0 and 8.0 (fold changes for both pH values together); dissociation with excess unlabeled ABD2.
In assay [17] the target is PLS2 RD-ABD1-H207K (human) (UniProt P13796). Described as above.
Assay [18] concerns the target PLS2 RD-ABD1 (a.a. 1-385) (human) (UniProt P13796). The experiment in a line: fluorescence polarisation; stopped-flow fluorescence anisotropy, 25 °C, PLS buffer pH 7.4; association of FM-ABD2 (50 or 100 nM) with excess RD-ABD1 (kon from the slope of kobs, line forced through koff); dissociation by competition with 7.5 to 20 uM unlabeled ABD2 (koff).
Assay [19] shares this target. Put plainly: fluorescence polarisation; stopped-flow fluorescence anisotropy, 25 °C, PLS buffer pH 7.8; association of FM-ABD2 (50 or 100 nM) with excess RD-ABD1 (kon from the slope of kobs, line forced through koff); dissociation by competition with 7.5 to 20 uM unlabeled ABD2 (koff).
The target in assay [20] is Skeletal actin, filamentous (F-actin) (rabbit) (UniProt P68135). The experiment in a line: fluorescence polarisation; stopped-flow fluorescence anisotropy kinetics, pH 7.0, 25 °C; association: FM-ABD2 (50 or 100 nM) with at least 10-fold F-actin; dissociation: from phalloidin-stabilized F-actin with excess unlabeled ABD2; Kd from koff and kon.
Assay [21] has as its target PLS2 RD-ABD1 (a.a. 1-385) (human) (UniProt P13796). The experiment in a line: fluorescence polarisation; stopped-flow fluorescence anisotropy, 25 °C, PLS buffer pH 7.0; association of FM-ABD2 (50 or 100 nM) with excess RD-ABD1 (kon from the slope of kobs, line forced through koff); dissociation by competition with 7.5 to 20 uM unlabeled ABD2 (koff).
For assay [22], the target named is Skeletal actin, filamentous (F-actin) (rabbit) (UniProt P68135). The experiment in a line: fluorescence polarisation; stopped-flow fluorescence anisotropy kinetics, pH 8.0, 25 °C; association of FM-ABD2 (50 or 100 nM) with at least 10-fold F-actin; koff could not be measured.
Assay [23] has the same target. The experiment in a line: fluorescence polarisation; equilibrium fluorescence anisotropy in a plate reader, 5 nM FM-ABD2 with F-actin stabilized with 1.0 uM phalloidin, PLS buffer pH 7.0, 22 °C, quadratic isotherm.
For assay [24] the target is unchanged. The experiment in a line: fluorescence polarisation; equilibrium fluorescence anisotropy in a plate reader, 5 nM FM-ABD2 with F-actin stabilized with 1.0 uM phalloidin, PLS buffer pH 8.0, 22 °C, quadratic isotherm.
The target in assay [25] is PLS2 RD-ABD1 (a.a. 1-385) (human) (UniProt P13796). The experiment in a line: fluorescence polarisation; stopped-flow fluorescence anisotropy kinetics of FM-ABD2 with RD-ABD1, 25 °C, pH 6.6 to 8.0 (the text tells the results for the whole pH range together); dissociation with excess unlabeled ABD2.
Assay [26] addresses Skeletal actin, filamentous (F-actin) (rabbit) (UniProt P68135). The experiment in a line: fluorescence polarisation; stopped-flow fluorescence anisotropy kinetics, pH 7.4, 25 °C; association: FM-ABD2 (50 or 100 nM) with at least 10-fold F-actin; dissociation: from phalloidin-stabilized F-actin with excess unlabeled ABD2; Kd from koff and kon.
The target in assay [27] is PLS2 RD-ABD1 (a.a. 1-385) (human) (UniProt P13796). The experiment in a line: fluorescence polarisation; equilibrium fluorescence anisotropy, pH 7.0, PLS buffer, 22 °C, 60 min; 10 nM FM-ABD2 with RD-ABD1; quadratic isotherm.

Bounds are passed on as bounds.

Sequence of PLS2 RD-ABD1 (a.a. 1–385) (P13796 1-385): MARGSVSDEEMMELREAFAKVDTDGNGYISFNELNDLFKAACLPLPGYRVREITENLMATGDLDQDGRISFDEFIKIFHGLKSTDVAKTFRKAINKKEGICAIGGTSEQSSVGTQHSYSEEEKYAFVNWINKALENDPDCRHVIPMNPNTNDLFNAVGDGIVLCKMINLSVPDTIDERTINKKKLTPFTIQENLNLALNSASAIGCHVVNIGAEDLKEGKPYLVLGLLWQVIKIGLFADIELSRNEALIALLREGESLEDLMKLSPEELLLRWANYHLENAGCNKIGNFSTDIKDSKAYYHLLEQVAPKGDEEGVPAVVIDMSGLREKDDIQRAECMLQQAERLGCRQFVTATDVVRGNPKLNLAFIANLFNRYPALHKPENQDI
Sequence of PLS2 RD-ABD1 (a.a. 1-385) (human) (P13796 1-385): as above
Sequence of PLS2-core (a.a. 83–627) (P13796 83-627): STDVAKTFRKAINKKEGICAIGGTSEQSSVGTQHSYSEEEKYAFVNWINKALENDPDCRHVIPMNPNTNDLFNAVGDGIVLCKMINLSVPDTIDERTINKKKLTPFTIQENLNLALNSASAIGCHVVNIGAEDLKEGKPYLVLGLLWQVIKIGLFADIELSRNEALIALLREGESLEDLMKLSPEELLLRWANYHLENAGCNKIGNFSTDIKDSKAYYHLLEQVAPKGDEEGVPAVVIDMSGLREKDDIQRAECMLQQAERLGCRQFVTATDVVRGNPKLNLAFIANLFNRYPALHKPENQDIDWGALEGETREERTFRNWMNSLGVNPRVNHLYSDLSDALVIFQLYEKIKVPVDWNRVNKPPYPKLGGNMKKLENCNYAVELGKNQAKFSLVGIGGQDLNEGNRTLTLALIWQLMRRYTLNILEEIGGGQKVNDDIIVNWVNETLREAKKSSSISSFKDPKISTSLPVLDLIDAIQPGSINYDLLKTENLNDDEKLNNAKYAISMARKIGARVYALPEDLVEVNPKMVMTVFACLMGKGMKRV

For the substance “PLS2 RD-ABD1 (a.a. 1–385) (from UniProt P13796 1-385) (domain or fragment)”, the Kd in assay [1] is 8.7 nM; in assay [2], 7.6 nM; in [3] it was 11 nM; in [4], 5.7 nM; in assay [5] it was 4.5 nM; in assay [6] it was 7.7 nM. Besides, the Kd in [7] was 5.1 nM. For the same substance, the koff in [2] was 0.008 s⁻¹; in assay [3] it was 0.013 s⁻¹; in [4] it was 0.009 s⁻¹; in [6] it was 0.008 s⁻¹; in [7], 0.01 s⁻¹. The kon in [2] is 1.01e+06 M⁻¹ s⁻¹; in assay [3], 1.24e+06 M⁻¹ s⁻¹; in [4] it was 1.6e+06 M⁻¹ s⁻¹; in [6], 1.07e+06 M⁻¹ s⁻¹; in assay [7], 1.94e+06 M⁻¹ s⁻¹.
“PLS2 RD-ABD1-H207K (from UniProt P13796 1-385) (domain or fragment)”: in assay [2], the association rate constant (kon) is 1.12e+06 M⁻¹ s⁻¹. Also, in assay [4], the Kd is 24 nM, the koff was 0.039 s⁻¹ and the kon was 1.59e+06 M⁻¹ s⁻¹.
Turning to “PLS2 RD-ABD1-H207Y (from UniProt P13796 1-385) (domain or fragment)”, in [2], the Kd was 2.2 nM, the koff was 0.0026 s⁻¹ and the kon is 1.21e+06 M⁻¹ s⁻¹. Also, in assay [4], the Kd was 1.1 nM, the koff is 0.0021 s⁻¹ and the kon was 1.87e+06 M⁻¹ s⁻¹.
Consider “PLS2-core (a.a. 83–627) (from UniProt P13796 83-627) (domain or fragment)”, for which, in [8], the fold decrease in F-actin bundling by PLS2-core (light scattering; low-speed centrifugation), pH 8.0 against pH 7.0 worked out at 2 fold.
As for “fluorescein-maleimide labeled PLS2 ABD2 (FM-ABD2) (domain or fragment)”, the Kd in assay [9] was determined as 5 nM; in assay [10] it was 15 nM; in assay [12], 13 nM; in assay [14] it was 1.7 nM; in assay [20], 9.5 nM; in [23], 2.88 nM. Moreover, the values for the Kd in assay [24] and in [26] were 0.613 nM and 12 nM, respectively. Also, the koff in assay [10] is 0.0073 s⁻¹; in assay [11], 0.00992 s⁻¹; in [12], 0.0066 s⁻¹; in assay [15], 0.0077 s⁻¹; in assay [18] it was 0.0135 s⁻¹; in assay [19], 0.00826 s⁻¹. Further, the koff in assay [20] came out at 0.0057 s⁻¹; in [21], 0.00905 s⁻¹; in assay [25], 0.008 s⁻¹; in [26] it was 0.0073 s⁻¹. Besides, the kon in [10] stood at 479000 M⁻¹ s⁻¹; in assay [11] it was 1.94e+06 M⁻¹ s⁻¹; in [12] it was 502000 M⁻¹ s⁻¹; in assay [13], 1.28e+06 M⁻¹ s⁻¹; in assay [15] it was 1.01e+06 M⁻¹ s⁻¹; in assay [18] it was 1.24e+06 M⁻¹ s⁻¹. The kon in assay [19] came out at 1.07e+06 M⁻¹ s⁻¹; in assay [20], 600000 M⁻¹ s⁻¹; in assay [21], 1.6e+06 M⁻¹ s⁻¹; in [22], 1.45e+06 M⁻¹ s⁻¹; in assay [26], 601000 M⁻¹ s⁻¹. Further, the fold change of kon against WT RD-ABD1 in assay [16] and in assay [17] was < 1.2 fold each time. For the same substance, the fold decrease of koff against WT RD-ABD1 in assay [16] was in the range of 3 to 4 fold. Further, the fold increase of koff against WT RD-ABD1 in assay [17] lay in the range of 4 to 12 fold. For the same substance, the fold slower kon at pH 8.0 than at pH 6.6 in assay [25] is 2 fold. The substance also returned a fold stronger association at pH 7.0 than at pH 8.0 in assay [27] of 2 fold.

Values taken from paper PMC12309418.
